Assay results taken from the DeepSol protein solubility set.

Test: soluble on expression in E. coli; label from the status in PepcDB or PDB records

| Sequence | soluble on expression in E. coli |
| --- | --- |
| MIKEFCAENLTLLPTLDAGQVSRVELCDNLAVGGTTPSYGVIKEACQLLHDKKISVATMIRPRGGDFVYNDLELKAMEEDILKAVEAGSDALVLGLLTTENQLDTDAIEQLLPATQGLPLVFHMAFDHIPTDHQHQALDQLIDYGFVRVLTHGSPEATPITDNVEQLKSLVTYANKRIEIMIGGGVTAENCQNLSQLTGTAIVHGTKIILEHHHHHH | soluble |
| MGSDKIHHHHHHMFDLHVHSVFSDGELIPSEIARRMYAAGNKGFAITDHADFTNIQDILAKLTRIKEHMESYEAKFLVGVEITHVPPSLIGKAVELAWKEGAEIVVVHGETVAEPVKEGTNLAALSEEITILAHPGIMSEEEAELARENGIYVEISARRGHCLGNGRVARLAEKYGFELVINTDMHSPSDIINDSTAERILKGAGVKEWKSVLENNEKLFRKLRK | not soluble |
| MGSDKIHHHHHHMEKILTKQEIEALLAAVFEGKIEPDKELAKAEATVQSYDLFSSESKGNIPNLDIIYDSFIRYQRGTLSNRLGRIVEIKKVGAASFKFDDFLHTMPSPVAMAVYKADPLKGAALIAFDSTLVFTIVDCILGGTGSSVVPTVGNRMFTSIELRLVQKIVMDVLADLEKAWAPIYATKMGFLRMEMNPRLVNIVPPEYQVVTMEMEIQIEEIIGKMIFAVPLTTIDPVREKLKNGAQVDMMAIDPQWSFRLSKELLEAPLDLSVEVGGAIISMDELLNLTPGDTIMLDTPCNSDLVVKVGGVSKFMSAPGLRHGNKAAQITTIIGKGREQ | not soluble |
| DIGCYTLGGFEPLNAIDTTICMGASIGMAHGFEMARGKEFAKKSVAVIGDSTFWHSGVTGLIDIVYNKGHSTVIILDNSITAMTGHQENPSTGKTLSGERTNQIDFEALGRSIGINRICVVDAYDLKALEETIKEEVNAEEPSLIITKRPCVLIKGAKFDFKDYKIDP | not soluble |
| MKIRYKFGVWMLCLMFPALVWAENAKSICTSFTQQGRQVTFHLADSAALQLQLCSPSVVRIWFSPDGKLQRRNASFAVINEELEDVGTVHVDEQAACYEIFTSKLRIRVNKSPMSIQIFDKYQKLLFSDYADKGHVSEGTKKVEYKTLRRDEHFFGLGEKTGKMDRRGESYKMWNSDKPCYSVVEDPLYKSIPFFMSSYRYGIFLDNTYKTEFKFGTESRDYYSFEAPDGEMIYYFIFGKDYKEILSQYVGLTGKPIMPPKWALGFAQCRGLLTSEKLSREIAEGYRTRGIPCDIIYQDIGWTEHLQDFEWRKGNYGHPKKMLADLKEMGFKVVVSQDPVISQANKKQWEEADRLGYFVKDSTNGKSYDMPWPWGGNCGVVDFTLPAVADWWGTYQQKPIDDGISGFWTDMGEPAWSNEEQTERLVMKHHLGMHDEIHNVYGLTWDKVVKEQFEKRNPNRRVFQMTRAAYAGLQRYTFGWTGDCGNGDDVLQGWGQLANQIPVILSAGLGVIPFTTCDITGYCGDIEDYHPFAELYTRWIQFGAFNPLSRIHHEGDNPVEPWLFGPEAEKNAKEAIELKYRLLPYIYTYAREAHDTGLPIMRPLFLEYPADMETFSTDGQFLFGQELLVAPVVKKGARTKNVYLPEGTWIDYNNKQTVYTGEQWTTVEAPLSCIPMFVKQGSIIPTMPVMNYTHEKPVYPLIFEVFPAPKGEEASFTLYEDEGEDLGYQRDEFAKTPVRFRTEEGGYLLSVGAREGKGYAVPAPRNFIFRMYLKTAPKGVTVQGKKVKKVKPERLEENPDDDTESMVWSWDKATGICSLRMPDRGEESRISLRL | not soluble |
| MTEAQLTLPTTKLSPTQKTQFIKLEKKLRRNVGQAIAQYNMIEDGDKVMVCLSGGKDSYAMLSILMLLKESAPIHFDIIAVNLDQKQPGFPEHILPEYLDKLGIEYHIVEEDTYGIVKEKVPEGKTTCSLCSRLRRAVLYKAAKKIGATKIALGHHRDDMIETLMLNMFYGGKMKAMPAKLVSDNGEHVVIRPLAFCKESELIQYSELKHFPIIPCNL | not soluble |
| GPLHMKAVVPGPAEHPLQYNYTFWYSRRTPGRPTSSQSYEQNIKQIGTFASVEQFWRFYSHMVRPGDLTGHSDFHLFKEGIKPMWEDDANKNGGKWIIRLRKGLASRCWENLILAMLGEQFMVGEEICGAVVSVRFQEDIISIWNKTASDQATTARIRDTLRRVLNLPPNTIMEYKTHTDSIKMPGRLGPQRLLF | soluble |
| GSMAEGRGSRERPDVETQKTELGALMGTTLQRGAQWYLIDSRWFKQWKKYVGFDSWDMYNVGEHNLFPGPIDNSGLFSDPESQTLKEHLIDELDYVLVPAEAWNKLLNWYGCVEGQQPIVRKVVEHGLFVKHCKVEVYLLELKLCENSDPTNVLSCHFSKADTIATIEKEMRKLFNIPAERETRLWNKYMSNTYEQLSKLDNTIQDAGLYQGQVLVIEPQNEDGTWPRQSL | soluble |
